This passage reports Kd results from patent US9567379 (UNIVERSITY OF CHICAGO, dated 2017).

Experiment [1] addresses T1, human prothrombin (human, UniProt P00734 44-622).
T1 construct: Amine-coupled to a CM5 chip
The experiment in a line: SPR (BIAcore 3000), human prothrombin amine-coupled to CM5 chip, Coa injected at 0-75 nM, 1:1 model. For orientation: SPR reads the build-up and loss of mass on a sensor chip optically.

For experiment [2], the target named is T2, human fibrinogen (human, UniProt P02671 20-644; P02675 31-491; P02679 27-437).
T2 construct: Amine-coupled to a CM5 chip
T2 sequence 1: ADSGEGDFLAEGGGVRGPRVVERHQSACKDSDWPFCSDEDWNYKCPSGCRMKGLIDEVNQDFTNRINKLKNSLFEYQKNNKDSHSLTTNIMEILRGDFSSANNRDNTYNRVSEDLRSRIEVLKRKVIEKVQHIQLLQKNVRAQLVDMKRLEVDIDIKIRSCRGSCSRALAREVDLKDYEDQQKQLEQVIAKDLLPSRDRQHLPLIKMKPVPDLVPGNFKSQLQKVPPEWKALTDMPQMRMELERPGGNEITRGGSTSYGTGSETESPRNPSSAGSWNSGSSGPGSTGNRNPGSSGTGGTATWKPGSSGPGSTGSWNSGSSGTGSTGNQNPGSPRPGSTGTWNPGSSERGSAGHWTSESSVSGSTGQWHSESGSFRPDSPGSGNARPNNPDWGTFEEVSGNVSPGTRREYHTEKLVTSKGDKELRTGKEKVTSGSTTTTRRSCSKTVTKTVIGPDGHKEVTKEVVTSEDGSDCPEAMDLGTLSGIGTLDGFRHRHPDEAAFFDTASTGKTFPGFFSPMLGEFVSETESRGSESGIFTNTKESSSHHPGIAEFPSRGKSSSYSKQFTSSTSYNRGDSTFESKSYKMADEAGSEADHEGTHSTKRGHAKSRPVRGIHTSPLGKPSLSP
T2 sequence 2: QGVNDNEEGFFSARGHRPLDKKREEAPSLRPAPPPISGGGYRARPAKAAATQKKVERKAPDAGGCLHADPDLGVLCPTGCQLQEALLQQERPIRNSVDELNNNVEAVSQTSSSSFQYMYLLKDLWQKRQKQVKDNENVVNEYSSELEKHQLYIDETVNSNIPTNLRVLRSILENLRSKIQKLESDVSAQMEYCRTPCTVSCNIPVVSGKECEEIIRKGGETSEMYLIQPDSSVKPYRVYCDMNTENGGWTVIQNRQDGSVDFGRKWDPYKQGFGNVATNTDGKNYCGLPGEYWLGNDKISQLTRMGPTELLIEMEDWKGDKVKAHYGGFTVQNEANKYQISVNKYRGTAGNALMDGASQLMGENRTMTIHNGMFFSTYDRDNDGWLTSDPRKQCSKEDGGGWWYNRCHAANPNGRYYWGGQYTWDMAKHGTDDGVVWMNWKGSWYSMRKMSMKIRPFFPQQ
T2 sequence 3: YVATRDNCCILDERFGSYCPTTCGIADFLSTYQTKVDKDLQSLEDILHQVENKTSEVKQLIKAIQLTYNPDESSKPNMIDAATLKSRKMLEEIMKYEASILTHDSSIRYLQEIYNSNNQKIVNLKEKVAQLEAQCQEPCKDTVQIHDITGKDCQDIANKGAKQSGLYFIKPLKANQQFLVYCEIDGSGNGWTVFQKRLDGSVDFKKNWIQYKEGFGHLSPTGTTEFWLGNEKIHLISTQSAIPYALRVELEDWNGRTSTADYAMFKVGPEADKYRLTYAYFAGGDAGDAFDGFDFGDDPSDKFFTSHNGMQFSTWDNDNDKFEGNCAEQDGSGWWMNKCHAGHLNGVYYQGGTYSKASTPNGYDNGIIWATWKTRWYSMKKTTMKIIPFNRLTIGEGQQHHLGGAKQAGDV
Put plainly: SPR (BIAcore 3000), human fibrinogen amine-coupled to CM5 chip, Coa injected, 1:1 model.

The target of experiment [3] is T1, human prothrombin. Put plainly: SPR (BIAcore 3000), human prothrombin amine-coupled to CM5 chip, vWbp injected, 1:1 model; target prothrombin.
The target in experiment [4] is T2, human fibrinogen. Put plainly: SPR (BIAcore 3000), human fibrinogen amine-coupled to CM5 chip, vWbp injected, 1:1 model; target fibrinogen.

B1: coagulase (Coa), recombinant mature protein with the His6 tag removed by Factor Xa (other)
chain: IVTKDYSGKSQVNAGSKNGTLIDSRYLNSALYYLEDYIIYAIGLTNKYEYGDNIYKEAKDRLLEKVLREDQYLLERKKSQYEDYKQWYANYKKENPRTDLKMANFHKYNLEELSMKEYNELQDALKRALDDFHREVKDIKDKNSDLKTFNAAEEDKATKEVYDLVSEIDTLVVSYYGDKDYGEHAKELRAKLDLILGDTDNPHKITNERIKKEMIDDLNSIIDDFFMETKQNRPKSITKYNPTTHNYKTNSDNKPNFDKLVEETKKAVKEADDSWKKKTVKKYGETETKSPVVKEEKKVEEPQAPKVDNQQEVKTTAGKAEETTQPVAQPLVKIPQGTITGEIVKGPEYPTMENKTVQGEIVQGPDFLTMEQSGPSLSNNYTNPPLTNPILEGLEGSSSKLEIKPQGTESTLKGTQGESSDIEVKPQATETTEASQYGPRPQFNKTPKYVKYRDAGTGIREYNDGTFGYEARPRFNKPSETNAYNVTTHANGQVSYGARPTYKKPSETNAYNVTTHANGQVSYGARPTQNKPSKTNAYNVTTHGNGQVSYGARPTQNKPSKTNAYNVTTHANGQVSYGARPTYKKPSKTNAYNVTTHADGTATYGPRVTK
notes: also called functionally active Coa
The Kd is the concentration at which binding is half-saturated. The low end stands for tighter binding, the high end for weaker binding. As for B1, the values for the Kd in the experiment with human prothrombin [1] and with human fibrinogen [2] were 28 nM and 93.1 nM, respectively.

B2: von Willebrand factor binding protein (vWbp), recombinant mature protein with the His6 tag removed by Factor Xa (other)
chain: VVSGEKNPYVSESLKLTNNKNKSRTVEEYKKSLDDLIWSFPNLDNERFDNPEYKEAMKKYQQRFMAEDEALKKFFSEEKKIKNGNTDNLDYLGLSHERYESVFNTLKKQSEEFLKEIEDIKKDNPELKDFNEEEQLKCDLELNKLENQILMLGKTFYQNYRDDVESLYSKLDLIMGYKDEERANKKAVNKRMLENKKEDLETIIDEFFSDIDKTRPNNIPVLEDEKQEEKNHKNMAQLKSDTEAAKSDESKRSKRSKRSLNTQNHKPASQEVSEQQKAEYDKRAEERKARFLDNQKIKKTPVVSLEYDFEHKQRIDNENDKKLVVSAPTKKPTSPTTYTETTTQVPMPTVERQTQQQIIYNAPKQLAGLNGESHDFTTTHQSPTTSNHTHNNVVEFEETSALPGRKSGSLVGISQIDSSHLTEREKRVIKREHVREAQKLVDNYKDTHSYKDRINAQQKVNTLSEGHQKRFNKQINKVYNGK
notes: also called functionally active vWbp
In the case of B2, the Kd came to 38.4 nM with human prothrombin [3] and 484 nM in the experiment with human fibrinogen [4].
